Laboratory results taken from the supplement of paper PMC10567573.

B1: KRT13 (parent)
chain: YGGGLGGGFGGGFAGGFVDFGACD

Variants of: B1
Assay: protein stability index of a GFP-peptide fusion (GPS, HEK-293T) (PSI 1-6); higher = more stable
Settings: c terminus: a fixed tail appended
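Also: lentivirally expressed fusions sorted by FACS into six bins by GFP to DsRed ratio, PSI derived from sequencing read proportions per bin multiplied by bin number.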

Variant	protein stability index
YGGGLGGGFGGGFYGGFVDFGACD	2.65
YGGGLGGGFGGGFRGGFVDFGACD	2.03
YGGGLGGGFGGGFPGGFVDFGACD	2.02
YGGGLGGGFGGGFEGGFVDFGACD	1.81
YGGGLGGGFGGGFSGGFVDFGACD	1.86
YGGGLGGGFGGGFCGGFVDFGACD	2.47
YGGGLGGGFGGGFFGGFVDFGACD	2.8
YGGGLGGGFGGGFKGGFVDFGACD	1.82
YGGGLGGGFGGGFQGGFVDFGACD	3.11
YGGGLGGGFGGGFDGGFVDFGACD	1.86
YGGGLGGGFGGGFWGGFVDFGACD	2.15
YGGGLGGGFGGGFNGGFVDFGACD	1.48
YGGGLGGGFGGGFMGGFVDFGACD	3.11
YGGGLGGGFGGGFTGGFVDFGACD	1.84
YGGGLGGGFGGGFIGGFVDFGACD	2.46
YGGGLGGGFGGGFHGGFVDFGACD	3.03
YGGGLGGGFGGGFVGGFVDFGACD	1.89
YGGGLGGGFGGGFAGGFVDFGFCD	2.1
YGGGLGGGFGGGFAGGFVDFGICD	1.33
YGGGLGGGFGGGFAGGFVDFGLCD	1.2
YGGGLGGGFGGGFAGGFVDFGKCD	1.98
YGGGLGGGFGGGFAGGFVDFGCCD	1.9
YGGGLGGGFGGGFAGGFVDFGDCD	1.42
YGGGLGGGFGGGFAGGFVDFGHCD	1.54

Variant	protein stability index
YGGGLGGGFGGGFAGGFVDFGECD	1.92
YGGGLGGGFGGGFAGGFVSFGACD	2.12
YGGGLGGGFGGGFAGGFVWFGACD	3.27
YGGGLGGGFGGGFAGGFVRFGACD	1.96
YGGGLGGGFGGGFAGGFVYFGACD	2.33
YGGGLGGGFGGGFAGGFVGFGACD	2.41
YGGGLGGGFGGGFAGGFVAFGACD	3.27
YGGGLGGGFGGGFAGGFVTFGACD	1.95
YGGGLGGGFGGGFAGGFVQFGACD	1.41
YGGGLGGGFGGGFAGGFVCFGACD	1.86
YGGGLGGGFGGGFAGGFVVFGACD	2.61
YGGGLGGGFGGGFAGGFVPFGACD	1.32
YGGGLGGGFGGGFAGGFVKFGACD	2
YGGGLGGGFGTGFAGGFVDFGACD	1.84
YGGGLGGGFGQGFAGGFVDFGACD	1.73
YGGGLGGGFGYGFAGGFVDFGACD	4.04
YGGGLGGGFGSGFAGGFVDFGACD	1.92
YGGGLGGGFGNGFAGGFVDFGACD	2.43
YGGGLGGGFGLGFAGGFVDFGACD	3.08
YGGGLGGGFGVGFAGGFVDFGACD	2.4
YGGGLGGGFGPGFAGGFVDFGACD	2.25
YGGGLGGGFGRGFAGGFVDFGACD	1.86
YGGGLGGGFGMGFAGGFVDFGACD	2.25
YGGGLGGGFGGGFAGGFVDSGACD	1.82

Variant	protein stability index
YGGGLGGGFGGGFAGGFVDHGACD	2.69
YGGGLGGGFGGGFAGGFVDRGACD	1.78
YGGGLGGGFGGGFAGGFVDEGACD	2.18
YGGGLGGGFGGGFAGGFVDDGACD	2.19
YGGGLGGGFGGGFAGGFVDLGACD	1.56
YGGGLGGGFGGGFAGGFVDPGACD	1.69
YGGGLGGGFGGGFAGGFVDAGACD	1.69
YGGGLGGGFGGGFAGGFVDTGACD	2.22
YGGGLGGGFGGGFAGGFVDNGACD	2.31
YGGGLGGGFGGGFAGGFVDQGACD	2.36
YGGGLGGGFGGGFAGGFVDIGACD	1.27
YGGGLGGGFGGGFAGGFVDMGACD	1.53
YGGGLGGGFGGGFAGGFVDGGACD	1.75
YGGGLGGGFGGGFAGGFVDVGACD	1.36
YGGGLGGGFGGGFAGGFVDYGACD	1.5
YGGGLGGGFGGGFAGGFVDKGACD	2.11
YGGGLGGGFGGGFAGGFVDWGACD	2.62
YGGGLGGGFGGGFAGGFWDFGACD	2.79
YGGGLGGGFGGGFAGGFQDFGACD	1.92
YGGGLGGGFGGGFAGGFIDFGACD	1.6
YGGGLGGGFGGGFAGGFADFGACD	2.34
YGGGLGGGFGGGFAGGFHDFGACD	2.44
YGGGLGGGFGGGFAGGFSDFGACD	3.77
YGGGLGGGFGGGFAGGFMDFGACD	1.65

Variant	protein stability index
YGGGLGGGFGGGFAGGFPDFGACD	1.96
YGGGLGGGFGGGFAGGFLDFGACD	1.38
YGGGLGGGFGGGFAGGFGDFGACD	3.27
YGGGLGGGFGGGFAGGFRDFGACD	2.95
YGGGLGGGFGGGFAGGFTDFGACD	2.17
YGGGLGGGFGGGFAGGFKDFGACD	2.09
YGGGLGGGFGGGFAGGFCDFGACD	1.38
YGGGLGGGFGGGFAGGFDDFGACD	1.93
YGGGLGGGFGGGFAGGFYDFGACD	1.58
YGGGLGGGFGGGFAGGFEDFGACD	1.78
YGGGLGGGFGGGFAGGFNDFGACD	1.5
YGGGLGGGFGGGFAGGPVDFGACD	1.81
YGGGLGGGFGGGFAGGHVDFGACD	2.06
YGGGLGGGFGGGFAGGIVDFGACD	1.23
YGGGLGGGFGGGFAGGVVDFGACD	2.37
YGGGLGGGFGGGFAGGCVDFGACD	2.18
YGGGLGGGFGGGFAGGDVDFGACD	2.43
YGGGLGGGFGGGFAGGTVDFGACD	1.77
YGGGLGGGFGGGFAGGEVDFGACD	2.44
YGGGLGGGFGGGFAGGQVDFGACD	1.93
YGGGLGGGFGGGFAGGGVDFGACD	1.68
YGGGLGGGFGGGFAGGNVDFGACD	2.55
YGGGLGGGFGGGFAGGAVDFGACD	2.07
YGGGLGGGFGGGFAGGLVDFGACD	1.09

Variant	protein stability index
YGGGLGGGFGGGFAGGMVDFGACD	2.11
YGGGLGGGFGGGFAGGKVDFGACD	1.96
YGGGLGGGFGGGFAGGRVDFGACD	1.57
YGGGLGGGFGGGFAGGYVDFGACD	2.01
YGGGLGGGFGGGFAGGSVDFGACD	1.89
YGGGLGGGFGGGFADGFVDFGACD	2.03
YGGGLGGGFGGGFAEGFVDFGACD	1.89
YGGGLGGGFGGGFATGFVDFGACD	1.61
YGGGLGGGFGGGFAHGFVDFGACD	1.65
YGGGLGGGFGGGFAIGFVDFGACD	3.13
YGGGLGGGFGGGFAPGFVDFGACD	2.71
YGGGLGGGFGGGFAVGFVDFGACD	3.52
YGGGLGGGFGGGFASGFVDFGACD	1.77
YGGGLGGGFGGGFAYGFVDFGACD	1.67
YGGGLGGGFGGGFARGFVDFGACD	2.42
YGGGLGGGFGGGFAQGFVDFGACD	2.07
YGGGLGGGFGGGFANGFVDFGACD	2.55
YGGGLGGGFGGGFAWGFVDFGACD	1.58
YGGGLGGGFGGGFAAGFVDFGACD	1.2
YGGGLGGGFGGGFAMGFVDFGACD	4.08
YGGGLGGGFGGGFAKGFVDFGACD	1.18
YGGGLGGGFGGGAAGGFVDFGACD	1.55
YGGGLGGGFGGGEAGGFVDFGACD	2.32
YGGGLGGGFGGGPAGGFVDFGACD	2.09

Variant	protein stability index
YGGGLGGGFGGGNAGGFVDFGACD	1.79
YGGGLGGGFGGGDAGGFVDFGACD	2.1
YGGGLGGGFGGGCAGGFVDFGACD	2.11
YGGGLGGGFGGGRAGGFVDFGACD	1.77
YGGGLGGGFGGGVAGGFVDFGACD	2.12
YGGGLGGGFGGGMAGGFVDFGACD	2.28
YGGGLGGGFGGGGAGGFVDFGACD	2.08
YGGGLGGGFGGGIAGGFVDFGACD	1.79
YGGGLGGGFGGGQAGGFVDFGACD	2.8
YGGGLGGGFGGGYAGGFVDFGACD	2.39
YGGGLGGGFGGGHAGGFVDFGACD	2.44
YGGGLGGGFGGGTAGGFVDFGACD	2.07
YGGGLGGGFGGGKAGGFVDFGACD	2.25
YGGGLGGGFGGGLAGGFVDFGACD	1.28
YGGGLGGGFGGGSAGGFVDFGACD	2.16
YGGGLGGGFGGGFAGCFVDFGACD	3.82
YGGGLGGGFGGGFAGDFVDFGACD	1.94
YGGGLGGGFGGGFAGLFVDFGACD	4.03
YGGGLGGGFGGGFAGSFVDFGACD	1.83
YGGGLGGGFGGGFAGIFVDFGACD	2.53
YGGGLGGGFGGGFAGHFVDFGACD	1.4
YGGGLGGGFGGGFAGEFVDFGACD	1.69
YGGGLGGGFGGGFAGWFVDFGACD	3.21
YGGGLGGGFGGGFAGAFVDFGACD	1.81

Variant	protein stability index
YGGGLGGGFGGGFAGNFVDFGACD	1.71
YGGGLGGGFGGGFAGKFVDFGACD	1.53
YGGGLGGGFGGGFAGTFVDFGACD	2.02
YGGGLGGGFGGGFAGVFVDFGACD	1.87
YGGGLGGGFGGGFAGYFVDFGACD	2.16
YGGGLGGGFGGGFAGMFVDFGACD	2.76
YGGGLGGGFGGGFAGQFVDFGACD	2.36
YGGGLGGGFGGGFAGRFVDFGACD	1.8
YGGGLGGGFGGIFAGGFVDFGACD	2.4
YGGGLGGGFGGTFAGGFVDFGACD	2.68
YGGGLGGGFGGMFAGGFVDFGACD	2.92
YGGGLGGGFGGSFAGGFVDFGACD	1.77
YGGGLGGGFGGNFAGGFVDFGACD	1.04
YGGGLGGGFGGQFAGGFVDFGACD	1.39
YGGGLGGGFGGWFAGGFVDFGACD	1.34
YGGGLGGGFGGPFAGGFVDFGACD	2.17
YGGGLGGGFGGKFAGGFVDFGACD	1.69
YGGGLGGGFGGVFAGGFVDFGACD	2.42
YGGGLGGGFGGCFAGGFVDFGACD	2.75
YGGGLGGGFGGYFAGGFVDFGACD	3.95
YGGGLGGGFGGDFAGGFVDFGACD	2.22
YGGGLGGGFGGLFAGGFVDFGACD	2.25
YGGGLGGGFGGEFAGGFVDFGACD	1.84
YGGGLGGGFGGRFAGGFVDFGACD	2.24

Variant	protein stability index
YGGGLGGGFGGHFAGGFVDFGACD	1.4
YGGGLGGGFGGFFAGGFVDFGACD	3.05
YGGGLGGGFGGGFAGGFVDFNACD	1.68
YGGGLGGGFGGGFAGGFVDFKACD	1.93
YGGGLGGGFGGGFAGGFVDFWACD	1.99
YGGGLGGGFGGGFAGGFVDFIACD	1.99
YGGGLGGGFGGGFAGGFVDFTACD	2.69
YGGGLGGGFGGGFAGGFVDFMACD	2.21
YGGGLGGGFGGGFAGGFVDFYACD	3.5
YGGGLGGGFGGGFAGGFVDFAACD	2.25
YGGGLGGGFGGGFAGGFVDFVACD	1.6
YGGGLGGGFGGGFAGGFVDFFACD	2.87
YGGGLGGGFGGGFAGGFVDFPACD	1.67
YGGGLGGGFGGGFAGGFVDFSACD	2.02
YGGGLGGGFGGGFAGGFVDFRACD	2.37
YGGGLGGGFGGGFAGGFVDFHACD	1.93
YGGGLGGGFGGGFAGGFVDFEACD	1.88
YGGGLGGGFGGGFAGGFVDFDACD	1.92
YGGGLGGGFGGGFAGGFVDFCACD	1
YGGGLGGGFGGGFAGGFVDFQACD	1.76
